Measured values reported in patent US5604198A, “Method to enhance permeability of the blood/brain blood/nerve barriers to therapeutic agents” (priority 1994, dated 1997).

Legend:
[1] = rat; for Relative increase of PS vs ALB, blood nerve barrier / Relative increase of Vp vs ALB, blood nerve barrier / Residual endoneurial plasma volume (Vp) of the blood nerve barrier / PS values across the blood nerve and blood brain barrier: in vivo; for Permeability coefficient-surface area product (PS) of the blood nerve barrier: not told, iv
Protocol: (§1) Male Sprague-Dawley rats (24-weeks-old) (460-500 g) were obtained from Bio Lab (St. Paul) and were used to determine the PS and Vp measurements. All animals were kept for a minimum of 3 days under standard housing conditions and feeding schedules prior to the experiments.
Briefly, a bolus of PBS containing ^125 I labelled carrier molecule was injected rapidly into the catheterized brachial vein of pentobarbital anesthetized rats. Blood was sampled during the next 30, 60, or 240 minutes from the brachial artery, depending on the carrier molecule being evaluated. Prior to the sacrifice of the animal at time sequences of 60 or 120 seconds, the second isotope-labelled carrier molecule (^131 I) was administered intravenously to serve as the residual plasma volume indicator (Vp).
After the final blood sample was collected, the sciatic nerves were rapidly removed and desheathed. Similarly, the brain was removed followed by the meninges. The brain was dissected into the cortex, caudal putamen, hippocampus, thalamus, brain stem, and cerebellum. The tissue was then lyophilized, and the dry weight was determined with a microbalance. These weights were then converted to their respective wet weights with wet weight/dry weight ratios previously determined for desheathed rat sciatic nerve and for the different brain regions. Tissue and plasma samples were assayed for ^125 I and ^131 I radioactivity in a 2-channel gamma counter. Radioactivity was corrected for crossover of ^131 I activity into the ^125 I channel and background activity. The Vp and PS measurements were calculated as described previously in Poduslo et al., Proc. Natl. Acad. Sci. U.S.A., 89, 2218 (1992). […] Statistical evaluations were done using Student's two-tailed paired t-test. Significance was accepted at the p<0.05 level.

[2] = rat, in vivo
Protocol: as §1
Briefly, a bolus of PBS containing ^125 I labelled carrier molecule was injected rapidly into the catheterized brachial vein of pentobarbital anesthetized rats. Blood was sampled during the next 30, 60, or 240 minutes from the brachial artery, depending on the carrier molecule being evaluated. […]
After the final blood sample was collected, the sciatic nerves were rapidly removed and desheathed. […] The tissue was then lyophilized, and the dry weight was determined with a microbalance. These weights were then converted to their respective wet weights with wet weight/dry weight ratios previously determined for desheathed rat sciatic nerve and for the different brain regions. Tissue and plasma samples were assayed for ^125 I and ^131 I radioactivity in a 2-channel gamma counter. Radioactivity was corrected for crossover of ^131 I activity into the ^125 I channel and background activity. The Vp and PS measurements were calculated as described previously in Poduslo et al., Proc. Natl. Acad. Sci. U.S.A., 89, 2218 (1992). […]

Substance | Relative increase of PS vs ALB, blood nerve barrier [1] | Relative increase of Vp vs ALB, blood nerve barrier [1] | Residual endoneurial plasma volume (Vp) of the blood nerve barrier [1] [µL/g] | Permeability coefficient-surface area product (PS) of the blood nerve barrier [1] [ml/g/sec × 10^6] | PS values across the blood nerve and blood brain barrier [1] | PS values in the different brain regions [2] | Vp values in the different brain regions [2] [µL/g]
calmodulin | 211.3 | 0.9 | 1.66 ± 0.32 | 21.34 ± 3.40 |  |  | 
ceruloplasmin | 82.4 | 1.0 | 1.98 ± 0.38 |  | 1-10 ×10^-6 ml/g/sec |  | 
cytochrome c | 73.6 | 1.0 | 1.96 ± 0.32 | 7.43 ± 3.68 | 1-10 ×10^-6 ml/g/sec |  | 
hemoglobin | 65.3 | 1.0 | 1.91 ± 0.35 | 6.60 ± 1.33 | 1-10 ×10^-6 ml/g/sec |  | 
lysozyme | 66.4 | 1.3 | 2.57 ± 0.52 | 6.71 ± 1.65 | 1-10 ×10^-6 ml/g/sec |  | 
substance P [SP] |  |  | 14.87 ± 3.53 |  |  | 27.68-36.53 ×10^-6 ml/g/s | 11.03 to 21.29
ubiquitin | 228.9 | 0.9 | 1.84 ± 0.51 |  |  |  | 
